For one molecule, cell-binding activity and IC50 results are on record in US8399416B2, “Method of using heparin binding motif for treating asthma” (National Tsing Hua University, priority 2008, dated 2013).

One data set deals with Beas-2B cells. The data set can be described thus: Cell ELISA of MBP-ECP and MBP-ECP mt1 binding to cells. The format is cell-based, human. As to conditions: MBP-ECP mt1 relative to MBP-ECP; 1 h at 4° C. On the technique in general: In an ELISA, binding on a coated surface is turned into a signal by an enzyme label.
The test system of the next data set is Beas-2B cell line. The data set can be described thus: MTT cytotoxicity assay of ECP. As to conditions: 37° C. 48 h, read-out: IC50 for cytotoxic ECP. The format is cell-based, human. As to the method: FIG. 12. Cytotoxicity of wild-type and mutant ECP. Beas-2B cells were incubated with increasing concentrations of wild-type and mt1 ECP at 37° C. for 48 h, followed by the MTT assay. The error bars show standard deviation among triplicate experiments.
The inhibition of lymphocyte and mammalian cell growth by ECP has been reported (Fan, T. C., et al. (2007) Traffic 8, 1778-1795; Maeda, T., et al. (2002) European Journal of Biochemistry 269, 307-316). As a physiological test, the cytotoxicity of ECP mt1 was monitored by MTT assay. The effect of ECP on the cell growth was determined by a colorimetric assay using 3-(4,5-dimethylthiazol-2-yl)-2,5-diphenyltetrazolium bromide (MTT) (US Biological, MA, USA). Cells were plated in a 96-well plate (5000 cells/well) and incubated at 37° C. overnight. Each sample was incubated with the indicated concentration (1-100 μM) of ECP. Forty-eight hours after treatment with ECP, MTT was added, and cell growth was monitored at A570 to measure the mitochondrial-dependent formation of a colored product.
A general note: Tetrazolium dyes change colour on reduction, which living cells bring about.

B1: ECP mt1: ECP mutant with R34A/W35A/R36A/K38A substitutions (protein, UniProt P12724 28-160, looked up, variant R34A W35A R36A K38A)
Eosinophil cationic protein: RPPQFTRAQWFAIQHISLNPPRCTIAMRAINNYAAACANQNTFLRTTFANVVNVCGNQSIRCPHNRTLNNCHRSRFRVPLLHCDLINPGAQNISNCTYADRPGRRFYVVACDNRDPRDSPRYPVVPVHLDTTI
In the data set with Beas-2B cells, B1 gave a cell-binding activity of 50%. Further, the IC50 with Beas-2B cell line came out at 38.5 µM.

Broadly, the IC50 is the point on the concentration scale where inhibition reaches its midpoint.
